Experiments:
[1] = molecular target: ADDL fibril preparation (Aβ1-42 fibrils made in 10 mM hydrochloric acid); test: solution equilibrium titration; free IgG by ELISA; GraFit
[2] = molecular target: T1, SEC Peak 1 fraction of ADDLs (large aggregates, >50 kDa); test: sandwich ELISA with polyclonal M90 as capture antibody; signal on SEC Peak 1 divided by signal on SEC Peak 2 of ADDLs
T1 construct: Size exclusion fraction of synthetic ADDLs; monomer, trimer, tetramer and 12-24 mers on SDS-PAGE

[3] = molecular target: T2, higher molecular weight oligomers of the ADDL preparation; test: western immunoblot of ADDLs after SDS-PAGE (column DENATURED SPECIES IDENTIFIED: HMW ADDLs)
T2 construct: also called higher molecular weight material (12-24 mer)

[4] = molecular target: T3, trimers of ADDLs (multi-dimensional conformation of soluble amyloid β1-42 oligomers, as defined by SDS-PAGE) (UniProt P05067 672-713); test: recognition of ADDL species defined by SDS-PAGE (see FIG. 3)
T3 construct: domain: amyloid β1-42; It is a species within the ADDL preparation

[5] = molecular target: T4, tetramers of ADDLs (multi-dimensional conformation of soluble amyloid β1-42 oligomers, as defined by SDS-PAGE) (UniProt P05067 672-713); test: as above
T4 construct: domain: amyloid β1-42; It is a species within the ADDL preparation

[6] = molecular target: T5, Aβ-derived diffusible ligands (synthetic ADDLs), soluble oligomers of amyloid β1-42; test: solution equilibrium titration; free IgG by ELISA; GraFit
T5 construct: number of copies varies (trimer, tetramer, 12-24 mer)

[7] = molecular target: T6, biotinylated ADDLs (bADDLs), oligomers prepared from N-terminal biotinylated amyloid β1-42 (N-terminal biotin); test: titration ELISA on streptavidin-captured 10% biotinylated ADDL
T6 construct: also called high molecular weight 10% bADDL

[8] = molecular target: T6, biotinylated ADDLs (bADDLs), oligomers …; test: BIACORE, bADDL as antigen, IgG1 #1
[9] = molecular target: T6, biotinylated ADDLs (bADDLs), oligomers …; test: BIACORE, bADDL as antigen, Fab
[10] = molecular target: T6, biotinylated ADDLs (bADDLs), oligomers …; test: BIACORE, bADDL as antigen, IgG1 #2

Row | Binder | Kd [1] | binding result [7] | also measured
1 | murine anti-ADDL monoclonal antibody 5F10 (antibody, V domains shown) VH: not shown VL: VVLMTQTPLSLPVSLGDQASISCRSSQSLVHSNGNTYLHWYLQKPGQSPKLLIYKVSNRFSGVPDRFSGSGSGTDFTLKISRVEAEDLGVYFCFQSTHVPLTFGAGTKLELK | 28.9 nM |  | Peak 1/Peak 2 Ratio (ELISA) [2]: 18
2 | murine anti-ADDL monoclonal antibody 2A10 (antibody, mouse IgG1, V domains shown) VH: QVTLKESGPGILKPSQTLSLTCSFSGFSLSTSGMGVGWIRQPSGKGLEWLAHIWWDDDKYYNPSLKSQLTISKDTSRNQVFLKITSVDTADTATYYCARRSISTLVPEDYFDYWGQGTTLTVSS VL: DVLMTQTPLSLPVSLGDQASISCRSSQSIVHSNGNTYLEWYLQKPGQSPKLLIYKVSNRFSGVPDRFSGSGSGTDFTLKISRVEAEDLGVYYCFQGSHVPLTFGAGTKLELK | 6.72 nM |  | binding result [3]: binds; binding result [4]: binds; binding result [5]: binds; Peak 1/Peak 2 Ratio (ELISA) [2]: 20
3 | murine anti-ADDL monoclonal antibody 1F4 (antibody, mouse IgG1, V domains shown) VH: DVQLVESGGGLVQPGGSRKLSCAASGFTFSSFGMHWVRQAPEKGLEWVAYISSVSSTIYYADTVKGRFTISRDNPKNTLFLQMTSLRSEDTAMYYCARSGYGSSYGYGMDYWGQGTLVTVSS VL: DVLMTQTPLSLPVSLGDQASISCRSSQSIVHSNGNTYLEWYLQKPGQSPKLLIYKVSNRFSGVPDRFSGSGSGTDFTLKISRVEAEDLGVYYCFQGSHVPLTFGAGTKLELK | 12.5 nM |  | Kd [6]: 9.24 nM
4 | murine anti-ADDL monoclonal antibody 3B3 (antibody, mouse IgG1, V domains shown) VH: DVQLVESGGGLVQPGGSRKLSCAASGFTFSSFGMHWVRQAPEKGLEWVAYISRGSSTIYYADTVKGRFTISRDNPKNTLFLQMTSLRSEDTAMYYCARGITTALDYWGQGTSVTVSS VL: DVLMTQTPLSLPVSLGDQASISCRSSQSIVHSNGNTYLEWYLQKPGQSPKLLIYKASNRFSGVPDRFSGSGSGTDFTLKISRVEAEDLGVYYCFQGSHVPPTFGGGTKLEIK | 7.21 nM |  | 
5 | murine anti-ADDL monoclonal antibody 2D6 (antibody, mouse IgG1, V domains shown) VH: QVTLKESGPGILKPSQTLSLTCSFSGFSLSTSGMGVGWIRQPSGKGLEWLAHIWWDDDKYYNPSLKSQLTISKDTSRNQVFLKITSVDTADTATYYCARRSISTVIPEDYFDYWGQGTILTVSS VL: DVLMTQTPLSLTVSLGDQASISCRSSQSIVHSNGNTYLEWYLQKPGQSPKLLIYKVSNRFSGVPDRFSGSGSGTDFTLKISRVEAEDLGVYYCFQGSHVPLTFGAGTKLELK | 14.4 nM |  | Peak 1/Peak 2 Ratio (ELISA) [2]: 19
6 | murine anti-ADDL monoclonal antibody 4C2 (antibody, mouse IgG1, V domains shown) VH: QVTLKESGPGILKPSQTLSLTCSFSGFSLSTSGMGVGWIRQPSGKGLEWLAHIWWDDDKYYNPSLKSQLTISKDTSRNQVFLKITSVDTADTATYYCARRSITTVVPEDYFAYWGQGTTLTVSS VL: DVLMTQSPLSLPVSLGDQASISCRSSQSIVHSNGNTYLEWYLQKPGQSPKLLIYKVSNRFSGVPDRFSGSGSGTDFTLKISRVEAEDLGVYYCFQGSHVPLTFGAGTKLELK | 19.2 nM |  | binding result [3]: binds; Peak 1/Peak 2 Ratio (ELISA) [2]: 18
7 | humanized 26D6, CDR grafted, IgG1/kappa (antibody) heavy: not shown light: DVVMTQSPLSLPVTPGEPASISCRASQSIVHSNGNTYLEWYLQKPGQSPQLLIYRVSNRFSGVPDRFSGSGSGTDFTLKISRVEAEDVGVYYCFQVTHVPLTFGQGTKLEIKRTVAAPSVFIFPPSDEQLKSGTASVVCLLNNFYPREAKVQWKVDNALQSGNSQESVTEQDSKDSTYSLSSTLTLSKADYEKHKVYACEVTHQGLSSPVTKSFNRGEC |  | binds | 
8 | humanized 26D6, CDR grafted, IgG2m4/kappa (antibody) heavy: QVTLKESGPTLVKPTQTLTLTCTFSGFSLSTSGMGVSWIRQPPGKALEWLAHIYWDDDKQYNPSLKSRLTITKDTSKNQVVLTMTNMDPVDTATYYCARRASSSRYDDQFDYWGQGTLVPVSSASTKGPSVFPLAPCSRSTSESTAALGCLVKDYFPEPVTVSWNSGALTSGVHTFPAVLQSSGLYSLSSVVTVTSSNFGTQTYTCNVDHKPSNTKVDKTVERKCCVECPPCPAPPVAGPSVFLFPPKPKDTLMISRTPEVTCVVVDVSQEDPEVQFNWYVDGVEVHNAKTKPREEQFNSTFRVVSVLTVLHQDWLNGKEYKCKVSNKGLPSSIEKTISKTKGQPREPQVYTLPPSREEMTKNQVSLTCLVKGFYPSDIAVEWESNGQPENNYKTTPPMLDSDGSFFLYSKLTVDKSRWQQGNVFSCSVMHEALHNHYTQKSLSLSPGK light: DVVMTQSPLSLPVTPGEPASISCRASQSIVHSNGNTYLEWYLQKPGQSPQLLIYRVSNRFSGVPDRFSGSGSGTDFTLKISRVEAEDVGVYYCFQVTHVPLTFGQGTKLEIKRTVAAPSVFIFPPSDEQLKSGTASVVCLLNNFYPREAKVQWKVDNALQSGNSQESVTEQDSKDSTYSLSSTLTLSKADYEKHKVYACEVTHQGLSSPVTKSFNRGEC |  | binds | 
9 | humanized 2H4, CDR grafted, IgG1/kappa (antibody, V domains shown, also called 2H4 (humanized)) VH: EVQLVESGGGLVQPGGSLRLSCAASGFTFSSFGMHWVRQAPGKGLEWVAYIRSGSSTIYYADTVKGRFTISRDNSKNTLYLQMNSLRAEDTAVYYCARGGNYYGSSRFAYWGQGTLVTVSS VL: DIQMTQSPSSLSASVGDRVTITCKASQDINSYLSWFQQKPGKAPKTLIYRANRFVDGVPSRFSGSGSGTDYTLTISSLQPEDFATYFCLQYDEFPLTFGGGTKVEIKR |  | binds | 
10 | affinity-matured humanized 20C2-1A, IgG1 (humanized A version) (antibody, V domains shown, also called clone SJ-p2-60) VH: QVTLKESGPALVKPTQTLTLTCTFSGFSLSTSGMGVGWIRQPPGKALEWLAHIWWDDDKSYNPSLKSRLTISKDTSKNQVVLTMTNMDPVDTATYYCARRQLGLRSIDAMDYWGQGTTVTVSS VL: DVVMTQSPLSLPVTPGEPASISCRSSQSILHSNGNTYLEWYLQKPGQSPQLLIYKVSNRFSGVPDRFSGSGSGTDFTLKISRVEAEDVGVYYCFQASRVPLTFGQGTKLEIKR |  |  | Kd [8]: 0.075 nM
11 | humanized 3B3, CDR grafted, IgG1/kappa (antibody, V domains shown, also called 3B3 (humanized)) VH: EVQLVESGGGLVQPGGSLRLSCAASGFTFSSFGMHWVRQAPGKGLEWVAYISRGSSTIYYADTVKGRFTISRDNAKNSLYLQMNSLRAEDTAVYYCARGITTALDYWGQGTLVTVSS VL: DVVMTQSPLSLPVTPGEPASISCRSSQSIVHSNGNTYLEWYLQKPGQSPQLLIYKASNRFSGVPDRFSGSGSGTDFTLKISRVEAEDVGVYYCFQGSHVPPTFGQGTKLEIKR |  | binds | 
12 | Fab fragment of affinity-matured humanized 20C2-18A (Fab, V domains shown) VH: QVTLKESGPALVKPTQTLTLTCTFSGFSLSTSGMGVGWIRQPPGKALEWLAHIWWDDDKSYNPSLKSRLTISKDTSKNQVVLTMTNMDPVDTATYYCARRQLGLRSIDAMDYWGQGTTVTVSS VL: DVVMTQSPLSLPVTPGEPASISCRSSQSILHSNGNTYLEWYLQKPGQSPQLLIYKVSNRFSGVPDRFSGSGSGTDFTLKISRVEAEDVGVYYCMQSSFVPLTFGQGTKLEIKR |  |  | Kd [9]: 85 nM
13 | humanized 4E2, CDR grafted, IgG1/kappa (antibody, V domains shown, also called 4E2 (humanized)) VH: QVTLKESGPALVKPTQTLTLTCTFSGFSLSTSGMGVGWIRQPPGKALEWLAHIWWDDDKYYNPSLKSQLTISKDTSKNQVVLTMTNMDPVDTATYYCARRSINSVVPEDYFDYWGQGTTVTVSS VL: DVVMTQSPLSLPVTPGEPASISCRSSQSIVHSNGNTYLEWYLQKPGQSPQLLIYKVSNRFSGVPDRFSGSGSGTDFTLKISRVEAEDVGVYYCFQGSHVPLTFGQGTKLEIKR |  | binds | 
14 | humanized 20C2, veneered, HCVR VenA IgG1 with veneered 20C2 LCVR Kappa (antibody, V domains shown, also called 20C2 VenA) VH: QVTLKESGPGILKPSQTLSLTCTFSGFSLSTSGMGVGWFRQPPGKGLEWLAHIWWDDDKSYNPSLKSRLTISKDTSKNQVFLTITNMDPVDTATYYCARRQLGLRSIDAMDYWGQGTTVTVSS VL: DVVMTQSPLSLPVSLGDPASISCRSSQSILHSNGNTYLEWYLQKPGQSPQLLIYKVSNRFSGVPDRFSGSGSGTDFTLKISRVEAEDLGVYYCFQGSLVPLTFGAGTKLELKR |  | binds | 
15 | humanized 1F6, CDR grafted, IgG1/kappa (antibody, V domains shown, also called 1F6 (humanized)) VH: EVQLVESGGGLVQPGGSLRLSCAASGFTFSSFGMHWVRQAPGKGLEWVAYISSVSSTIYYADTVKGRFTISRDNSKNTLYLQMNSLRAEDTAVYYCARSGYGSSYGYGMDYWGQGTLVTVSS VL: DVVMTQSPLSLPVTPGEPASISCRSSQSIVHSNGNTYLEWYLQKPGQSPQLLIYKVSNRFSGVPDRFSGSGSGTDFTLKISRVEAEDVGVYYCFQGSHVPLTFGQGTKLEIKR |  | binds | 
16 | affinity-matured humanized 20C2-2A, IgG1 (humanized A version) (antibody, V domains shown, also called clone SJ-p1-18) VH: QVTLKESGPALVKPTQTLTLTCTFSGFSLSTSGMGVGWIRQPPGKALEWLAHIWWDDDKSYNPSLKSRLTISKDTSKNQVVLTMTNMDPVDTATYYCARRQLGLRSIDAMDYWGQGTTVTVSS VL: DVVMTQSPLSLPVTPGEPASISCRSSQSILHSNGNTYLEWYLQKPGQSPQLLIYKVSNRFSGVPDRFSGSGSGTDFTLKISRVEAEDVGVYYCFQATRVPLTFGQGTKLEIKR |  |  | Kd [10]: 0.0003 nM; Kd [8]: 0.015 nM

From patent US20110159013A1 (MERCK, published 2011)
